Columns and labels:
[1] = target: T1, wild-type mouse PD-L1 mCherry (full-length mouse PD-L1 with C-terminal mCherry, on HEK 293 cells) (mouse, UniProt Q9EP73 19-290); experiment: FACS competition: mPD-1 mIgG2a titrated (0.01-250 nM dimer) against 5 nM mB7-1 hIgG1 (competitor) on HEK 293 cells expressing mPD-L1 mCherry; one-site competition fit, three experiments
T1 construct: whole, on cells; also called wild type PD-L1; mPD-L1 mCherry; not shown: C-terminal mCherry (Clontech N1 mCherry vector)
Source text: A mB7-1 hIgG1 Fc fusion construct was cloned which used the same erythropoietin (EPO) leader, mB7-1 ecto domain boundaries and linker sequence as the original mIgG2a construct described above. This construct was transiently expressed in HEK 293 cells and purified as described above for the other Fc fusion proteins used. For the completion experiment, HEK 293 suspension cells were transiently transfected with wild-type mPD-L1 mCherry. Three days post transfection transfected cells were counted and diluted to 1×10⁶ cells/mL. B7-1 hIgG1 fusion protein was added to 100,000 transfected cells at a final concentration of 5 nM dimer, in either the absence or presence of increasing concentrations of PD-1 mIgG2a protein (0.01-250 nM dimer). Parallel experiments were carried out in which purified mIgG2a isotype control was titrated at equivalent molar concentrations. Protein binding was carried out at 22° C. shaking at 900 rpm on a 96-well plate shaker for 1 hour. […] Cells were subsequently washed two more times with 1×PBS with 0.2% BSA. […] Competition data was normalized to 5 nM B7-1 binding in the absence of mPD-1 and plotted as a function of log [mPD-1]. Average data from three independent experiments was fit using a one-site competition model equation Y=min+(max−min)/(1+10^{x-log EC50}).
A) Cartoon depiction of the competition assay. […]

[2] = target: T2, PD-L1 mutant G120R (mouse PD-L1-mCherry fusion) (mouse, UniProt Q9EP73 19-290); experiment: microbead FACS binding assay: protein A microbeads loaded with Fc fusion, HEK 293 cells displaying the PD-L1-mCherry mutant
T2 construct: whole, on cells; not shown: C-terminal mCherry (Clontech N1 mCherry vector)
Protocol: (§1) PD-L1 mCherry mutant constructs were transiently transfected into HEK 293S cells and subsequently challenged with protein A microbeads (Milltenyi) pre-saturated with a 4:1 mixture of PD-1 Fc-fusion and FITC-Fc protein. A total Fc protein to bead ratio of 5 ug/10 uL microbeads was utilized on the basis of a previous report from Genentech (16). The FITC-Fc served to make the otherwise non-fluorescent microbeads show green fluorescence. For each titration experiment, 500 μL of protein A microbeads were loaded with a mixture of 10 μg fluorescein isothiocyanate (FITC)-Fc and 40 μg of either PD-1-Fc or B7-1-Fc protein in a total volume of 5 mL 1× phosphate buffered saline (PBS). The beads were incubated overnight (˜16 hours) at 4° C. Loaded beads were stored for up to two weeks prior to use. Initial experiments determined that 75 μL of the loaded beads were sufficient to saturate 150,000 cells transfected with wild type PD-L1, (transfection efficiency being consistently 60-70%). For titration experiments, sets of wild type and mutant PD-L1 constructs were transfected in 24-well tissue culture plates containing 1 mL of suspension HEK-293 cells. Three days post transfection cells were counted, diluted to 1×10⁶ cell/mL with 1×PBS with 2% BSA. 150K cells (150 μL) were transferred to Eppendorf tubes, and 75 μL of loaded microbeads added along with an additional 100 μL 1×PBS with 2% bovine serum albumin (BSA). Reactions were mixed end over end for 1 hour at 4° C., 4′,6-diamidino-2-phenylindole (DAPI) was added and samples were immediately analyzed by flow cytometry on a BD Aria III cytometer. Data were analyzed by gating first for live cells (DAPI negative) then for mCherry positive cells (PD-L1 expression). The percentage of mCherry positive cells that were FITC positive (microbeads bound) was used as “percent bound”. For each experiment, the percent bound was normalized to wild type binding.
(§2) These cells were probed by flow cytometry for their ability to bind either FITC-loaded microbeads decorated with wild type PD-1 Ig-fusion or wild type B7-1 Ig-fusion proteins (FIG. 7B).

[3] = target: T3, PD-L1 mutant I115D (mouse PD-L1-mCherry fusion) (mouse, UniProt Q9EP73 19-290); experiment: as above
T3 construct: whole, on cells; not shown: C-terminal mCherry (Clontech N1 mCherry vector)
Protocol: as §1, §2

[4] = target: T4, PD-L1 mutant D122R (mouse PD-L1-mCherry fusion) (mouse, UniProt Q9EP73 19-290); experiment: as above
T4 construct: whole, on cells; not shown: C-terminal mCherry (Clontech N1 mCherry vector)
Protocol: as §1, §2

[5] = target: T5, PD-L1 mutant A121D (mouse PD-L1-mCherry fusion) (mouse, UniProt Q9EP73 19-290); experiment: as above
T5 construct: whole, on cells; not shown: C-terminal mCherry (Clontech N1 mCherry vector)
Protocol: as §1, §2

[6] = target: T6, PD-L1 mutant G120A (mouse PD-L1-mCherry fusion) (mouse, UniProt Q9EP73 19-290); experiment: as above
T6 construct: whole, on cells; not shown: C-terminal mCherry (Clontech N1 mCherry vector)
Protocol: as §1, §2

[7] = target: T7, PD-L1 mutant L53D (mouse PD-L1-mCherry fusion) (mouse, UniProt Q9EP73 19-290); experiment: as above
T7 construct: whole, on cells; not shown: C-terminal mCherry (Clontech N1 mCherry vector)
Protocol: as §1, §2

[8] = target: T8, PD-L1 mutant A121R (mouse PD-L1-mCherry fusion) (mouse, UniProt Q9EP73 19-290); experiment: as above
T8 construct: whole, on cells; not shown: C-terminal mCherry (Clontech N1 mCherry vector)
Protocol: as §1, §2

[9] = target: T9, PD-L1 mutant I116R (mouse PD-L1-mCherry fusion) (mouse, UniProt Q9EP73 19-290); experiment: as above
T9 construct: whole, on cells; not shown: C-terminal mCherry (Clontech N1 mCherry vector)
Protocol: as §1, §2

[10] = target: T10, PD-L1 mutant G119R (mouse PD-L1-mCherry fusion) (mouse, UniProt Q9EP73 19-290); experiment: as above
T10 construct: whole, on cells; not shown: C-terminal mCherry (Clontech N1 mCherry vector)
Protocol: as §1, §2

[11] = target: T11, PD-L1 mutant L53R (mouse PD-L1-mCherry fusion) (mouse, UniProt Q9EP73 19-290); experiment: as above
T11 construct: whole, on cells; not shown: C-terminal mCherry (Clontech N1 mCherry vector)
Protocol: as §1, §2

[12] = target: T1, wild-type mouse PD-L1 mCherry …; experiment: cell microarray challenged with Fc fusion protein
[13] = target: T12, PD-L1 mutant R125A (mouse PD-L1-mCherry fusion) (mouse, UniProt Q9EP73 19-290); experiment: microbead FACS binding assay: protein A microbeads loaded with Fc fusion, HEK 293 cells displaying the PD-L1-mCherry mutant
T12 construct: whole, on cells; not shown: C-terminal mCherry (Clontech N1 mCherry vector)
Protocol: as §1, §2

[14] = target: T13, PD-L1 mutant D122A (mouse PD-L1-mCherry fusion) (mouse, UniProt Q9EP73 19-290); experiment: as above
T13 construct: whole, on cells; not shown: C-terminal mCherry (Clontech N1 mCherry vector)
Protocol: as §1, §2

[15] = target: T14, PD-L1 mutant K124A (mouse PD-L1-mCherry fusion) (mouse, UniProt Q9EP73 19-290); experiment: as above
T14 construct: whole, on cells; not shown: C-terminal mCherry (Clontech N1 mCherry vector)
Protocol: as §1, §2

[16] = target: T15, PD-L1 mutant K124D (mouse PD-L1-mCherry fusion) (mouse, UniProt Q9EP73 19-290); experiment: as above
T15 construct: whole, on cells; not shown: C-terminal mCherry (Clontech N1 mCherry vector)
Protocol: as §1, §2

[17] = target: T16, PD-L1 mutant R125D (mouse PD-L1-mCherry fusion) (mouse, UniProt Q9EP73 19-290); experiment: as above
T16 construct: whole, on cells; not shown: C-terminal mCherry (Clontech N1 mCherry vector)
Protocol: as §1, §2

[18] = target: T17, PD-L1 mutant Y123A (mouse PD-L1-mCherry fusion) (mouse, UniProt Q9EP73 19-290); experiment: as above
T17 construct: whole, on cells; not shown: C-terminal mCherry (Clontech N1 mCherry vector)
Protocol: as §1, §2

[19] = target: T18, PD-L1 mutant Y123R (mouse PD-L1-mCherry fusion) (mouse, UniProt Q9EP73 19-290); experiment: as above
T18 construct: whole, on cells; not shown: C-terminal mCherry (Clontech N1 mCherry vector)
Protocol: as §1, §2

T5 sequence (Q9EP73 19-290 A121D): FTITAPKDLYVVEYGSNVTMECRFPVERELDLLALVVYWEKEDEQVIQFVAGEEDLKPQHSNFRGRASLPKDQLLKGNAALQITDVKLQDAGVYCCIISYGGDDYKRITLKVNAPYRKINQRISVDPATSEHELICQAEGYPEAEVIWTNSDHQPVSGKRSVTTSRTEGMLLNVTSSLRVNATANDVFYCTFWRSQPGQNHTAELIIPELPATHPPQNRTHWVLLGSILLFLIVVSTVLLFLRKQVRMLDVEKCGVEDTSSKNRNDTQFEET
T10 sequence (Q9EP73 19-290 G119R): as the sequence (Q9EP73 19-290 A121D) above, with G101R, D103A counted along it
T6 sequence (Q9EP73 19-290 G120A): as the sequence (Q9EP73 19-290 A121D) above, with G102A, D103A counted along it
T11 sequence (Q9EP73 19-290 L53R): as the sequence (Q9EP73 19-290 A121D) above, with L35R, D103A counted along it
T9 sequence (Q9EP73 19-290 I116R): as the sequence (Q9EP73 19-290 A121D) above, with I98R, D103A counted along it
T3 sequence (Q9EP73 19-290 I115D): as the sequence (Q9EP73 19-290 A121D) above, with I97D, D103A counted along it
T2 sequence (Q9EP73 19-290 G120R): as the sequence (Q9EP73 19-290 A121D) above, with G102R, D103A counted along it
T1 sequence (Q9EP73 19-290): as the sequence (Q9EP73 19-290 A121D) above, with D103A counted along it
T4 sequence (Q9EP73 19-290 D122R): as the sequence (Q9EP73 19-290 A121D) above, with D103A, D104R counted along it
T7 sequence (Q9EP73 19-290 L53D): as the sequence (Q9EP73 19-290 A121D) above, with L35D, D103A counted along it
T8 sequence (Q9EP73 19-290 A121R): as the sequence (Q9EP73 19-290 A121D) above, with D103R counted along it
T16 sequence (Q9EP73 19-290 R125D): as the sequence (Q9EP73 19-290 A121D) above, with D103A, R107D counted along it
T12 sequence (Q9EP73 19-290 R125A): as the sequence (Q9EP73 19-290 A121D) above, with D103A, R107A counted along it
T13 sequence (Q9EP73 19-290 D122A): as the sequence (Q9EP73 19-290 A121D) above, with D103A, D104A counted along it
T17 sequence (Q9EP73 19-290 Y123A): as the sequence (Q9EP73 19-290 A121D) above, with D103A, Y105A counted along it
T15 sequence (Q9EP73 19-290 K124D): as the sequence (Q9EP73 19-290 A121D) above, with D103A, K106D counted along it
T14 sequence (Q9EP73 19-290 K124A): as the sequence (Q9EP73 19-290 A121D) above, with D103A, K106A counted along it
T18 sequence (Q9EP73 19-290 Y123R): as the sequence (Q9EP73 19-290 A121D) above, with D103A, Y105R counted along it

| EC50 [1] [nM] | binding result [2] | binding result [3] | binding result [4] | binding result [5] | binding result [6] | binding result [7] | binding result [8] | binding result [9] | binding result [10] | binding result [11] | binding result [12] | binding result [13] | binding result [14] | binding result [15] | binding result [16] | binding result [17] | binding result [18] | binding result [19] | Binder |
| --- | --- | --- | --- | --- | --- | --- | --- | --- | --- | --- | --- | --- | --- | --- | --- | --- | --- | --- | --- |
| 8.3 | no binding | no binding | no binding | no binding | no binding | no binding | no binding | no binding | no binding | no binding |  |  |  |  |  |  |  |  | wild-type mPD-1 Fc (residues L25-Q167, mIgG2a-10×His) (Fc fusion, mouse, not shown: a dimerising Fc or GST, range 25-167; In the microbead assay it was loaded on protein A microbeads; also called PD-1 Fc-fusion; PD-1 Ig-fusion) chain (part 1 of 2): LEVPNGPWRSLTFYPAWLTVSEGANATFTCSLSNWSEDLMLNWNRLSPSNQTEKQAAFCNGLSQPVQDARFQIIQLPNRHDFHMNILDTRRNDSGIYLCGAISLHPKAKIEESPGAELVVTERILETSTRYPSPSPKPEGRFQ chain (part 2 of 2): HHHHHHHHHH |
|  | no binding | no binding | no binding | no binding | no binding | no binding | no binding | no binding | no binding | no binding | binds | binds | binds | binds | binds | binds | binds | binds | wild-type mB7-1 Fc (residues D37-K245, mIgG2a-10×His) (Fc fusion, C-terminal mIgG2a Fc-10×His (dimerising carrier), not in the letters, In the microbead assay it was loaded on protein A microbeads; also called B7-1 Fc-fusion; B7-1 Ig-fusion; not shown: the linker between ectodomain and Fc, the mouse IgG2a Fc and the 10xHis tag behind it) DVDEQLSKSVKDKVLLPCRYNSPHEDESEDRIYWQKHDKVVLSVIAGKLKVWPEYKNRTLYDNTTYSLIILGLVLSDRGTYSCVVQKKERGTYEVKHLALVKLSIKADFSTPNITESGNPSADTKRITCFASGGFPKPRFSWLENGRELPGINTTISQDPESELYTISSQLDFNTTRNHTIKCLIKYGDAHVSEDFTWEKPPEDPPDSK |
